Test results reported in article PMC3420021, “Crystallographic Analysis of Polypyrimidine Tract-Binding Protein-Raver1 Interactions Involved in Regulation of Alternative Splicing” (Structure(London, England:1993), 2011).

B1: Raver1 PRI4 12-residue sequence as it stands in the PRI4-RRM2 chimera (peptide)
peptide: SSEGLLGLGPGP
notes: core GLLGLGP is numbered 1-7; In the crystal it was joined on one chain with m3 (chimera m5); source: E. coli BL21 (DE3), purified as part of the PRI4-RRM2 chimera
B2: Raver1 PRI3 12-residue sequence as it stands in the PRI3-RRM2 chimera (peptide)
peptide: PGVSLLGAPPKD
notes: core SLLGAPP is numbered 1-7; In the crystal it was joined on one chain with m3 (chimera m1); source: E. coli BL21 (DE3), purified as part of the PRI3-RRM2 chimera

Molecular target: T1, PTB RRM2 (residues 156-285 of PTB) as it stands in the PRI-RRM2 chimeras (UniProt P26599 156-285)
T1 construct: the linker residues had no density; source: E. coli BL21 (DE3), purified as part of the PRI-RRM2 chimeras
Assay: crystal structure; PRI sequence fused as N-terminal extension to PTB 156-285 on one chain; sitting drop, 0.2 M NaI, 0.1 M Bis-Trispropane pH 6.5, 20% PEG 3350; two complexes in the asymmetric unit
Settings: both partners purified

T1 sequence (P26599 156-285, change not shown): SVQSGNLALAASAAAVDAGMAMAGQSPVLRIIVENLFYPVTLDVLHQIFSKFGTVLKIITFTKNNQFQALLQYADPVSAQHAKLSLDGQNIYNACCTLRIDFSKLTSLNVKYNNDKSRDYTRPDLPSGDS

Binder	binding result
B1	binds
B2	binds
